Source: patent publication US20160137713A1 (HANALL BIOPHARMA, published 2016)

Assays:
[1] = molecular target: T1, human FcRn on HEK293 cells (human, UniProt P55899 24-365; P61769 21-119); assay: FACS on hFcRn-overexpressing HEK293 cells at pH 6.0, Alexa488 anti-human goat antibody; MFI relative to hIgG1
T1 construct: whole, on cells; also called hFcRn
Description: (§1) In stable HEK293 cells expressing human FcRn, the degrees of binding of antibody to FcRn at various pHs were analyzed using a FACS system. Specifically, 100,000 stable HEK293 cells were washed with PBS and centrifuged in a table top microcentrifuge at 4500 rpm for 5 minutes to obtain pellets. 1 μg of antibody was added to 100 μl of pH 6.0 or pH 7.4PBS/10 mM EDTA. The cell pellets were resuspended in 100 μl of the antibody solution and incubated on ice for 60 minutes. The cells were washed once with 150 μl of buffer having pH difference, and then pellets were obtained therefrom. Alexa488-labeled anti-human antibody goat antibody (1 mg/ml) was diluted at 1:20 in buffer having pH difference, and the pellets were resuspended in 100 μl of the buffer, and then cultured on ice for 60 minutes. The cells were washed once with 150 μl of buffer having pH difference, and pellets were obtained therefrom and resuspended in buffer having pH difference. The suspension was transferred into a tube for FACS analysis. These cells were analyzed by FACS using BD FACSDiva™ v6.1.3 software (BD Bioscience). The results of the analysis were expressed as Mean Fluorescence Intensity (MFI) (see FIG. 2).

[2] = molecular target: T2, rat FcRn on Rat-2 cells (rat, UniProt P13599 23-366; P07151 21-119); assay: FACS on rat FcRn-expressing Rat-2 cells at pH 6.0 and pH 7.4, FITC anti-human IgG goat antibody; MFI relative to hIgG
T2 construct: whole, on cells
T2 sequence (looked up): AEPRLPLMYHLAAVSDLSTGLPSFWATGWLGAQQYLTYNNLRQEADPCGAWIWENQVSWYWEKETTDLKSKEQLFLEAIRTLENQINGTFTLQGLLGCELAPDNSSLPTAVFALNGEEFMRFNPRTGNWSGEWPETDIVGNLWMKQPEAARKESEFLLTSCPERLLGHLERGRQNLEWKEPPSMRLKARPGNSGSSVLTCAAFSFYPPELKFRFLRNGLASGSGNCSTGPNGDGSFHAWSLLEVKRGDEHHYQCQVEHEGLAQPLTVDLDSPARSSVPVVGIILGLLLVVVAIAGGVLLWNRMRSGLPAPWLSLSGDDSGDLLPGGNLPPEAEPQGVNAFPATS
T2 sequence (b2m, looked up): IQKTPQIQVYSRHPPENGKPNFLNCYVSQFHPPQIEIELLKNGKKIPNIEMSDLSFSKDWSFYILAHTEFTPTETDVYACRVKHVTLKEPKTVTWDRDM
Description: Rat-2 (KCTC #AC28203), rat fibroblasts stably expressing rat FcRn, were cultured in 10% FBS DMEM medium, and then detached from the culture plate by trypsin treatment. The cells were washed three times with cold binding buffer (PBS pH 6.0, 10 mM EDTA), and then diluted in binding buffer at a concentration of 10⁵ cells/ml. 100 μl of the cell dilution was dispensed into each 1.5-ml tube in such a manner that each tube contained 10⁴ cells, and 1 μl of HL161 antibody (1 mg/ml) was added to the dispensed cells. Next, the cells were incubated on ice. As control antibodies, 1 μl of each of mouse 1G3 antibody and human IgG antibody (Abcam, cat#. 409120), which bind to rat FcRn, was used. The 1G3 antibody was produced and purified from mouse hybridoma cells (ATCC CRL2434). The cells were recovered by centrifugation at 4° C. and 4000 rpm for 5 minutes, after which the cells were washed once with binding buffer and resuspended in 100 μl of binding buffer. As FITC-conjugated secondary antibody, 1 μl of anti-human IgG goat antibody (Invitrogen, cat#. A11013) was added to the cells. In the case of the experiment using anti-rat FcRn mouse antibody, the anti-mouse IgG goat antibody (Invitrogen, cat#. A11001) was incubated with the cells on ice for 1 hour, and then the cells were recovered by centrifugation at 4° C. and 4000 rpm for 5 minutes, washed once with binding buffer, resuspended in 400 μl of binding buffer and analyzed by FACS to examine the cross-reactivity of the HL161 antibodies with rat FcRn (see FIG. 4). An experiment at a pH of 7.4 was performed using binding buffer at a pH of 7.4 in the same manner as the experiment using binding buffer at a pH of 6.0. The degree of the binding of each antibody to rat FcRn was presented as relative MFI based on human IgG.

[3] = molecular target: T1, human FcRn on HEK293 cells; assay: FACS on hFcRn-overexpressing HEK293 cells at pH 7.4, Alexa488 anti-human goat antibody; MFI relative to hIgG1
Description: as §1

[4] = molecular target: T1, human FcRn on HEK293 cells; assay: FACS competition on hFcRn HEK293 cells at pH 6.0; remaining binding of 100 nM Alexa488-labeled hIgG1 (m14) with 250 nM competitor antibody, percent of the tube without competitor
Description: In stable HEK293 cells expressing human FcRn, the blocking of the antibody against FcRn was analyzed by FACS. The antibody was diluted in binding buffer (PBS pH 6.0, 10 mM EDTA) at concentrations of 2,000 nM, […] to make 50 μl of dilutions, which were dispensed into tubes. […] Stable HEK293 cells were diluted in binding buffer at a concentration of 2,500,000 cells/ml, and 40 μl of the cell dilution was added to each of the labeled antibody-containing tubes. Thus, a final volume of 100 μl contained 100,000 cells, 100 nM labeled antibody and 1000 nM, 500 nM or 250 nM competitor antibody. The cells were washed once with 150 μl of buffer (pH 6.0), and pellets were obtained therefrom and resuspended in 150 μl of buffer having pH difference. The suspension was transferred into a tube for FACS analysis. The cells were analyzed by FACS using BD FACSDiva™ v6.1.3 software (BD Bioscience). The results of the analysis were expressed as mean fluorescence intensity (MFI).
The MFI of the test group was processed after subtracting the MFI (background signal) measured in cells alone.

Relative MFI (Fold) [1]: 3.5 fold | binding result [2]: no binding | Relative MFI (Fold) [3]: 10.6 fold | Relative MFI(%) at 250nM [4]: 75.4%
B1: HL161-11H (antibody, V domains shown)
VH: QMQLVESGGGLVQPGRSLRLSCAASGFTFSSYAMHWVRQAPGKGLEWVAVISYDGSNKYYADSVKGRFTISRDNSKNTLYLQMNSLRSEDTAVYYCSRGSGGRDAFDVWGQGTMITVSS
VL: DIQMTQSPSTLSASVGDRVTITCRASQSISSRLAWYQQKPGKAPKLLIYKASSLETGVPSRFSGSGSGTEFTLTISSLQPDDFATYYCQQTNSFPLTFGGGTKVEIK
notes: Whole human IgG from pNATAB vectors
